The source of these data is patent US11389485.

Experiment [1] has as its target CD33 variant having the fragment encoded by exon 2 deleted (CD33ex2) (human) (UniProt P20138). The experiment is described as follows: cell-based or functional assay.
The target in experiment [2] is human CD33, full-length (CD33M) (human) (UniProt P20138). The experiment is described as follows: cell-based or functional assay.

B1: gemtuzumab ozogamicin (antibody, INN chains, looked up, V domains shown)
VH: EVQLVQSGAEVKKPGSSVKVSCKASGYTITDSNIHWVRQAPGQSLEWIGYIYPYNGGTDYNQKFKNRATLTVDNPTNTAYMELSSLRSEDTAFYYCVNGNPWLAYWGQGTLVTVSS
VL: DIQLTQSPSTLSASVGDRVTITCRASESLDNYGIRFLTWFQQKPGKAPKLLMYAASNQGSGVPSRFSGSGSGTEFTLTISSLQPDDFATYYCQQTKEVPWSFGQGTKVEVKR
modifications: ozogamicin (calicheamicin) conjugate
In turn, B1 yielded an IC50 of GO cytotoxicity, HSPC CD33ex2 in experiment [1] of 0.246 µg/mL. In experiment [2], this molecule registered an IC50 of GO cytotoxicity (viable cell number, Celltiter Glo, 72 h), HL-60 cells of 0.0355 µg/mL; an IC50 of GO cytotoxicity (viable cell number, Celltiter Glo, 72 h), THP-1 cells of 0.0163 µg/mL; an IC50 of GO cytotoxicity, wild-type HSPC of 0.0934 µg/mL.
